Measured values reported in patent US11278600B2, “Human alpha-galactosidase variants” (Codexis, Inc., priority 2014, dated 2022).

How the values were obtained:
Assay type in all cases: biochemical
[1] = HTP-analysis of yeast culture supernatants, no challenge (MUGal hydrolysis); conditions: activity of the variant/activity of Rd3BB (SEQ ID NO: 13)
Summary of the method: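 GLA variants were expressed in INVSc1 yeast grown in SD-Ura broth with glucose at 30° C., and culture supernatants were collected after 66-84 h. Supernatant was mixed with McIlvaine buffer pH 4.8 and MUGal (2 mM stock) in 50 mM citrate, 200 mM KCl, pH 4.6, incubated at 37° C. for 30-180 minutes, then quenched with sodium carbonate.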

[2] = HTP-analysis of supernatants pretreated with acid (MUGal hydrolysis); conditions: activity of the variant/activity of Rd3BB (SEQ ID NO: 13); for Relative Activity of GLA Variants After Challenge at pH 3.3: yeast supernatant
Summary of the method: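 Fluorescence of MUGal hydrolysis (Ex. 355 nm, Em. 448 nm) is read after sodium carbonate quench. The enzyme source is INVSc1 yeast culture supernatant, first exposed to pH 3.3-4.3 McIlvaine buffer at 37° C. for 1-3 h, then reacted at pH 4.8 for 30-180 minutes.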

[3] = HTP-analysis of supernatants pretreated with base (MUGal hydrolysis); conditions: activity of the variant/activity of Rd3BB (SEQ ID NO: 13), challenge at pH 9.7
Summary of the method: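 Fluorescence of released 4-MU (Ex 355 nm, Em 448 nm) after carbonate quench reports MUGal hydrolysis by GLA variants secreted from INVSc1 yeast. Before the acidic (pH 4.3-4.8) 30-180 min reaction at 37° C, supernatants had been pre-incubated at pH 7.0-9.7 for 1-18 h at 37° C.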

B1: 545 (protein)
chain: LDNGLARTPTMGWLHWERFMCNLDCQEEPDSCISEKLFMEMAERMVSEGWKDAGYEYLCIDDCWMAPQRDSEGRLQADPQRFPHGIRQLANHVHSKGLKLGIYADVGNKTCAGFPGSFGYYDIDAQTFADWGVDLLKFDGCYCDSLENLADGYKHMSLALNRTGRSIVYSCEWPLYMWPFQKPNYTEIRQYCNHWRNFADIDDSWASIKSILDWTSRNQERIVDVAGPGGWNDPDMLVIGNFGLSWDQQVTQMALWAIMAAPLFMSNDLRHISPQAKALLQDKDVIAINQDPLGAQGYQLRKGDNFEVWERPLSGDAWAVAIINRQEIGGPRSYTIPVASLGKGVACNPACFITQLLPVKRQLGFYNWTSRLKSHINPTGTVLLQLENTMQMSLKDLL
modifications: Synthetic Polypeptide sequence of Variant No. 545 of mature Human GLA
Question: Which “Relative Activity of GLA Variants After No Challenge (NC)” value [1] does the source give for B1 here?
Answer: + (+ = 1.5 to 5 relative activity over Rd3BB (SEQ ID NO: 13))

Question: What about the “Relative Activity of GLA Variants After Challenge at pH 3.7” value [2] of the same molecule?
Answer: + (+ = 1.5 to 5 relative activity over Rd3BB (SEQ ID NO: 13))

Question: What about the “Relative Activity of GLA Variants After Challenge at pH 9.7” value (“Relative Activity … at pH 9.7” below) [3] of the same molecule?
Answer: ++ (++ = >5 to 10 relative activity over Rd3BB (SEQ ID NO: 13))

B2: 633 (protein)
chain: LDNGLARTPTMGWLHWERFMCNLDCQEEPDSCISEKLFMEMADRMVSEGWKDAGYEYLCIDDCWMAPQRDSEGRLQADPQRFPHGIRQLANSVHSKGLKLGIYADVGNKTCAGFPGSFGYYDIDAQTFADWGVDLLKFDGCYCDSLENLADGYKHMSLALNRTGRPIVYSCEWPLYMWPFQKPNYTEIRQYCNHWRNFADIDDSWASIKSILDWTSRNQERIVDVAGPGGWNDPDMLVIGNFGLSWDQQVTQMALWAIMAAPLFMSNDLRHISPQAKALLQDKDVIAINQDPLGKQGYQLRKGDNFEVWERPLSGDAWAVAIINRQEIGGPRSYTIPVASLGKGVACNPACFITQLLPVKRQLGFYNWTSRLKSHINPTGTVLLQLENTMQMSLKDLL
modifications: Synthetic Polypeptide sequence of Variant No. 633 of mature Human GLA
Question: Which “Relative Activity of GLA Variants After No Challenge (NC)” value ([1]; yeast supernatant) does the source give for B2 here?
Answer: + (+ = 1.5 to 5 relative activity over Rd3BB (SEQ ID NO: 13))

Question: What about the “Relative Activity of GLA Variants After Challenge at pH 3.3” value (“Relative Activity … at pH 3.3” for short) [2] of the same molecule?
Answer: ++ (++ = >5 to 10 relative activity over Rd3BB (SEQ ID NO: 13))

Question: And the “Relative Activity … at pH 9.7” value ([3]; yeast supernatant)?
Answer: ++ (++ = >5 to 10 relative activity over Rd3BB (SEQ ID NO: 13))

B3: 634 (protein)
chain: LDNGLARTPTMGWLHWERFMCNLDCQEEPDSCISEKLFMEMADRMVSEGWKDAGYEYLCIDDCWMAPQRDSEGRLQADPQRFPHGIRQLANEVHSKGLKLGIYADVGNKTCAGFPGSFGYYDIDAQTFADWGVDLLKFDGCYCDSLENLADGYKHMSLALNRTGRPIVYSCEWPLYMWPFQKPNYTEIRQYCNHWRNFADIDDSWASIKSILDWTSRNQERIVDVAGPGGWNDPDMLVIGNFGLSWDQQVTQMALWAIMAAPLFMSNDLRHISPQAKALLQDKDVIAINQDPLGKQGYQLRKGDNFEVWERPLSGDAWAVAIINRQEIGGPRSYTIPVASLGKGVACNPACFITQLLPVKRQLGFYNWTSRLKSHINPTGTVLLQLENTMQMSLKDLL
modifications: Synthetic Polypeptide sequence of Variant No. 634 of mature Human GLA
Question: For B3, which “Relative Activity of GLA Variants After No Challenge (NC)” value ([1]; yeast supernatant) is on record?
Answer: + (+ = 1.5 to 5 relative activity over Rd3BB (SEQ ID NO: 13))

Question: And the “Relative Activity … at pH 3.3” value [2]?
Answer: ++ (++ = >5 to 10 relative activity over Rd3BB (SEQ ID NO: 13))

Question: And the “Relative Activity … at pH 9.7” value ([3]; yeast supernatant)?
Answer: ++ (++ = >5 to 10 relative activity over Rd3BB (SEQ ID NO: 13))

B4: 613 (protein)
chain: LDNGLARTPTMGWLHWERFMCNLDCQEEPDSCISEKLFMEMAERMVNEGWKDAGYEYLCIDDCWMAPQRDSEGRLQADPQRFPHGIRQLANHVHSKGLKLGIYADVGNKTCAGFPGSFGYYDIDAQTFADWGVDLLKFDGCYCDSLENLADGYKHMSLALNRTGRPIVYSCEWPLYMWPFQKPNYTEIRQYCNHWRNFADIDDSWASIKSILDWTSRNQERIVDVAGPGGWNDPDMLVIGNFGLSWDQQVTQMALWAIMAAPLFMSNDLRAISPQAKALLQDKDVIAINQDPLGKQGYQLRKGDNFEVWERPLSGDAWAVAIINRQEIGGPRSYTIPVASLGKGVACNPACFITQLLPVKRQLGFYNWTSRLKSHINPTGTVLLQLENTQQMSLKDLL
modifications: Synthetic Polypeptide sequence of Variant No. 613 of mature Human GLA
Question: With B4 as the molecule, how does the “Relative Activity of GLA Variants After No Challenge (NC)” value ([1]; yeast supernatant) read?
Answer: + (+ = 1.5 to 5 relative activity over Rd3BB (SEQ ID NO: 13))

Question: What about the “Relative Activity … at pH 3.3” value [2] of the same molecule?
Answer: ++ (++ = >5 to 10 relative activity over Rd3BB (SEQ ID NO: 13))

Question: And the “Relative Activity … at pH 9.7” value ([3]; yeast supernatant)?
Answer: ++ (++ = >5 to 10 relative activity over Rd3BB (SEQ ID NO: 13))

B5: 610 (protein)
chain: LDNGLARTPTMGWLHWERFMCNLDCQEEPDSCISEKLFMEMAERMVTEGWKDAGYEYLCIDDCWMAPQRDSEGRLQADPQRFPHGIRQLANHVHSKGLKLGIYADVGNKTCAGFPGSFGYYDIDAQTFADWGVDLLKFDGCYCDSLENLADGYKHMSLALNRTGRPIVYSCEWPLYMWPFQKPNYTEIRQYCNHWRNFADIDDSWASIKSILDWTSRNQERIVDVAGPGGWNDPDMLVIGNFGLSWDQQVTQMALWAIEAAPLFMSNDLRHISPQAKALLQDKDVIAINQDPLGKQGYQLRKGDNFEVWERPLSGDAWAVAIINRQEIGGPRSYTIPVASLGKGVACNPACFITQLLPVKRQLGFYNWTSRLKSHINPTGTVLLQLENTQQMSLKDLL
modifications: Synthetic Polypeptide sequence of Variant No. 610 of mature Human GLA
Question: With B5 as the molecule, how does the “Relative Activity of GLA Variants After No Challenge (NC)” value ([1]; yeast supernatant) read?
Answer: + (+ = 1.5 to 5 relative activity over Rd3BB (SEQ ID NO: 13))

Question: And the “Relative Activity … at pH 3.3” value [2]?
Answer: + (+ = 1.5 to 5 relative activity over Rd3BB (SEQ ID NO: 13))

Question: And the “Relative Activity … at pH 9.7” value ([3]; yeast supernatant)?
Answer: − (− = <1.5 relative activity to Rd3BB (SEQ ID NO: 13))

B6: 546 (protein)
chain: LDNGLARTPTMGWLHWERFMCNLDCQEEPDSCISEKLFMEMAERMVSEGWKDAGYEYLCIDDCWMAPQRDSEGRLQADPQRFPHGIRQLANHVHSKGLKLGIYADVGNKTCAGFPGSFGYYDIDAQTFADWGVDLLKFDGCYCDSLENLADGYKHMSLALNRTGRSIVYSCEWPLYMWPFQKPNYTEIRQYCNHWRNFADIDDSWASIKSILDWTSRNQERIVDVAGPGGWNDPDMLVIGNFGLSWDQQVTQMALWAIMAAPLFMSNDLRHISPQAKALLQDKDVIAINQDPLGEQGYQLRKGDNFEVWERPLSGDAWAVAIINRQEIGGPRSYTIPVASLGKGVACNPACFITQLLPVKRQLGFYNWTSRLKSHINPTGTVLLQLENTMQMSLKDLL
modifications: Synthetic Polypeptide sequence of Variant No. 546 of mature Human GLA
Question: Which results are given for B6?
Answer: Relative Activity of GLA Variants After No Challenge (NC) [1]: + (+ = 1.5 to 5 relative activity over Rd3BB (SEQ ID NO: 13)); Relative Activity of GLA Variants After Challenge at pH 3.7 [2]: +++ (+++ = >10 relative activity over Rd3BB (SEQ ID NO: 13)); Relative Activity of GLA Variants After Challenge at pH 9.7 [3]: ++ (++ = >5 to 10 relative activity over Rd3BB (SEQ ID NO: 13))

B7: 611 (protein)
chain: LDNGLARTPTMGWLHWERFMCNLDCQEEPDSCISEKLFMEMAERMVSEGWKDAGYEYLCIDDCWMAPQRDSEGRLQADPQRFPHGIRQLANHVHSKGLKLGIYADVGNKTCAGFPGSFGYYDIDAQTFADWGVDLLKFDGCYCDSLENLADGYKHMSLALNRTGRPIVYSCEWPLYMWPFQKPNYTEIRQYCNHWRNFADIDDSWASIKSILDWTSRNQERIVDVAGPGGWNDPDMLVIGNFGLSWDQQVTQMALWAIMAAPLFMSNDLRHISPQAKALLQDKDVIAINQDPLGKQGYQLRKGDNFEVWERPLSGDAWAVAIINRQEIGGPRSYTIPVASLGKGVACNPACFITQLLPVKRQLGFYNWTSRLKSHINPTGTVLLQLENTQQMSLKDLL
modifications: Synthetic Polypeptide sequence of Variant No. 611 of mature Human GLA
Question: Which “Relative Activity of GLA Variants After No Challenge (NC)” value ([1]; yeast supernatant) does the source give for B7 here?
Answer: + (+ = 1.5 to 5 relative activity over Rd3BB (SEQ ID NO: 13))

Question: What about the “Relative Activity … at pH 3.3” value [2] of the same molecule?
Answer: +++ (+++ = >10 relative activity over Rd3BB (SEQ ID NO: 13))

Question: And the “Relative Activity … at pH 9.7” value ([3]; yeast supernatant)?
Answer: ++ (++ = >5 to 10 relative activity over Rd3BB (SEQ ID NO: 13))

B8: 614 (protein)
chain: LDNGLARTPTMGWLHWERFMCNLDCQEEPDSCISEKLFMEMAERMVTEGWKDAGYEYLCIDDCWMAPQRDSEGRLQADPQRFPHGIRQLANHVHSKGLKLGIYADVGNKTCAGFPGSFGYYDIDAQTFADWGVDLLKFDGCYCDSLENLADGYKHMSLALNRTGRPIVYSCEWPLYMWPFQKPNYTEIRQYCNHWRNFADIDDSWASIKSILDWTSRNQERIVDVAGPGGWNDPDMLVIGNFGLSWDQQVTQMALWAIMAAPLFMSNDLRHISPQAKALLQDKDVIAINQDPLGKQGYQLRKGDNFEVWERPLSGDAWAVAIINRQEIGGPRSYTIPVASLGKGVACNPACFITQLLPVKRQLGFYNWTSRLKSHINPTGTVLLQLENTMQMSLKDLL
modifications: Synthetic Polypeptide sequence of Variant No. 614 of mature Human GLA
Question: For B8, which “Relative Activity of GLA Variants After No Challenge (NC)” value ([1]; yeast supernatant) is on record?
Answer: + (+ = 1.5 to 5 relative activity over Rd3BB (SEQ ID NO: 13))

Question: And the “Relative Activity … at pH 3.3” value [2]?
Answer: ++ (++ = >5 to 10 relative activity over Rd3BB (SEQ ID NO: 13))

Question: And the “Relative Activity … at pH 9.7” value ([3]; yeast supernatant)?
Answer: ++ (++ = >5 to 10 relative activity over Rd3BB (SEQ ID NO: 13))
